Positions of bridges follow the written chain, without caps; N, C: chain ends.
Assays:
[1] = molecular target: T1, human IgG4 (human, UniProt P01861-1 1-327 = IgG part); assay: fluorescence anisotropy; pH 5.7, 0.01 M Tris-acetate
T1 construct: Calbiochem; plasma IgG4 in anisotropy studies, myeloma-derived (cat. 400126) in batch/column studies; also called hIgG4
Procedure: (§1) All measurements were performed in 384 well microplates with 20 nM fluorescein-labeled peptide and various concentrations of the IgG isoform in a volume of between 10 and 20 μl using a Tecan Polarion fluorescence polarization plate reader. All binding buffers included 0.01% (v/v) Tween 20 to prevent peptide adsorption to the microplate. The binding mixture was equilibrated for 10 minutes in the microplate at 30° C. prior to performing the measurement.

[2] = molecular target: T2, human IgG1 (human, UniProt P01857-1 1-330 = IgG part); assay: as above
T2 construct: Calbiochem; human plasma IgG1 in anisotropy studies, myeloma-derived (cat. 400120) in batch/column studies; also called hIgG1
Procedure: as §1

[3] = molecular target: T3, human IgG2 (human, UniProt P01859-1 1-326 = IgG part); assay: as above
T3 construct: Calbiochem; plasma IgG2 in anisotropy studies, myeloma-derived (cat. 400122) in batch/column studies; also called hIgG2
Procedure: as §1

[4] = molecular target: T2, human IgG1; assay: fluorescence anisotropy; pH 7.4 PBS (second value, unlabelled row)
Procedure: as §1

[5] = molecular target: T1, human IgG4; assay: batch binding, immobilised ligand
[6] = molecular target: T3, human IgG2; assay: batch binding, immobilised ligand
[7] = molecular target: T1, human IgG4; assay: mini-column chromatography, immobilised ligand
Procedure: (§2) Thus, 250 μg of target (hIgG1, hIgG2, hIgG3, hIgG4, goat IgG and bovine IgG) at 0.250 mg/ml in PBST, pH 7.2 or TBST, pH 7.3 was loaded onto a 350 μl column (3×50 mm) run at 0.200 ml/min. flowrate (170 cm/hr). Flowthrough, elution and cleaning fractions were collected and assayed for total protein recovery by size-exclusion HPLC.

[8] = molecular target: T2, human IgG1; assay: mini-column chromatography, immobilised ligand
Procedure: as §2

[9] = molecular target: T3, human IgG2; assay: mini-column chromatography, immobilised ligand
Procedure: as §2

T3 sequence (P01859 other isoform, or with tags, fused parts or gaps): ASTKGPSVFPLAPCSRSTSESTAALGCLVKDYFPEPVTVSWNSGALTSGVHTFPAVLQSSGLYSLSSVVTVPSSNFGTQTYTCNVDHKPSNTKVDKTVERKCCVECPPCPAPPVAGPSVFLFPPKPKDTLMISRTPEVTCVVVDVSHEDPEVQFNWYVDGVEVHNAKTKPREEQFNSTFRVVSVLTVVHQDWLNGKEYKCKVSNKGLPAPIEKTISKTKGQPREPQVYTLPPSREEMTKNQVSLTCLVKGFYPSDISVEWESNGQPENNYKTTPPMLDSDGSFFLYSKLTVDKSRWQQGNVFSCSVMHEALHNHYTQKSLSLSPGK
T2 sequence (P01857 other isoform, or with tags, fused parts or gaps): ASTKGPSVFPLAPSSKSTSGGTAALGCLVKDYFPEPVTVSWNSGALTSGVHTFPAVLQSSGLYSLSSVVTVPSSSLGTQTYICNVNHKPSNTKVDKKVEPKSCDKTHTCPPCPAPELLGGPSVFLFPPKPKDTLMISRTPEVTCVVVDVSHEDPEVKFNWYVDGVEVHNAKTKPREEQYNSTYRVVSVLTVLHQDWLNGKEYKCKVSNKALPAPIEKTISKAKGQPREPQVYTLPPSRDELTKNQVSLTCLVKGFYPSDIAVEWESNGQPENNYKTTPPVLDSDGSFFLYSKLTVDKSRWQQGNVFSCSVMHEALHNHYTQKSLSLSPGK
T1 sequence (P01861 other isoform, or with tags, fused parts or gaps): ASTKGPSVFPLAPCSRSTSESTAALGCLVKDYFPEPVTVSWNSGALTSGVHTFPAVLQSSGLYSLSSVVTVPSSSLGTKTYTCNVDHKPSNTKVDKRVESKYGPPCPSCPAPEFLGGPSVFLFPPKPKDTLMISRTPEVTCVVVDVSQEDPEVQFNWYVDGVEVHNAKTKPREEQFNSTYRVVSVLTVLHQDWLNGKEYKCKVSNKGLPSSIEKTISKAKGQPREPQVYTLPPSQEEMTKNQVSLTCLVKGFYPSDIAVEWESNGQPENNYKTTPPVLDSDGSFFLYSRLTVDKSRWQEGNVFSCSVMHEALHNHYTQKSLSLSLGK

## Ac-GDDHMCVYTTWGELIWCDNHEPGPEGGGK-NH2 (disulfide 6-17 (inferred), Synthetic disulfide-cyclised peptide) [DX249]
[1]
  Kd: 300 nM
[2]
  Kd: 74 nM
[3]
  Kd: 68 nM
[4]
  Kd: 2900 nM
[5]
  Bound (% of Total Load): 61%
  bdg % (of Total Load): 82%
[6]
  Bound (% of Total Load): 78%
  bdg % (of Total Load): 92%
[7]
  binding efficiency: > 90%
[8]
  binding efficiency: > 90%
[9]
  binding efficiency: > 90%
